{"source": "paper PMC9599711", "molecular_target": "cardiac troponin T (cTn-T) (UniProt P45379)", "test": "electrochemical aptasensor", "conditions": "thiol (end not stated); Protein in 10 mM PBS pH 7.4, 30 min on BSA-blocked electrode, PBS wash; read in 0.10 M KCl with 5.0 mM K3/K4[Fe(CN)6]; temperature not stated", "data": [{"sequence": "CGTGCAGTACGCCAACCTTTCTCATGCGCTGCCCCTCTTA [cTn-I aptamer (Jo et al.)]", "values": [{"measurement": "binding signal (% normalized response)", "result": "< 5"}]}]}
